Test results published in the supplement of paper PMC12764529.
± gives the half width of the 95% confidence interval.

Assay: folding stability dG unfold from trypsin proteolysis; higher = more stable
Outline: (§1)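 Unfolding free energy was derived, per protease or combined, against a sequence-predicted unfolded-state K50 and a shared folded-state K50, starting from K50 inferred by Bayesian fitting of sequencing counts. Digestion with trypsin and chymotrypsin was carried out on designed mini-proteins under 80 residues without cysteine in a PA-tagged cDNA display construct. Only designs with AlphaFold2 dimer inter-PAE above 15 were kept.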

Sequence | folding stability dG unfold [kcal/mol]
SAGGSAGGSAGGVEIPPDKPVAIEVTSPEGPTATLIFDPKDGTVTVIEGGKPVEVPAEDFSAGGSAGGSAGG [r7_937_TrMRF] | 0.0909 ± 0.059
SAGGSMSESEVVEVTVGGKPVTITVHREDNRYSAEVTLPPGVRVVLPFGGPESPEKAVEEAVRALESAGGSA [r2_92_JUSTAS] | 0.352 ± 0.036
SAGGSAGGSAMPKVTIKITVYNAETGELRTVTLTLPEEDMSLEEIAAALPPGWRIVKVELLSAGGSAGGSAG [r3_80_TrROS_Hall] | 3.46 ± 0.077
SKKPDYVILIEIEVEKNENGEKTIKKKIIIYDKNGKKKLIAEEEITIEVNGIKIKIKIKIFPKGASLEELSA [r9_1113_TrROS_Hall] | 3.51 ± 0.26
SAGGSAMTVVKVTLKSPSGTTTVTLPAEEWERFLAAPEVSKTWTLTEVVEEEEPPPELDPEAVELGSAGGSA [r15_460_JUSTAS] | 0.626 ± 0.11
SAGGSAGGSAKTITITVKPEDMTEEELKEKIAEELGIDPEEIEIVKVEKLPNGEVKVTIKIKSAGGSAGGSA [r18_118_TrROS_Hall] | 3.59 ± 0.17
SAGGSAGGSDMTMTYIIPLPDYAIVISFKIEITEVEYNPENGKPVKFRFDIEIKIEVFPPGDLSAGGSAGGS [r12_809_TrROS] | 3.46 ± 0.21
SAGGSAGGSAGGKPNEVRVANIPIYRRLENGGWELIRPLPIVVPVDASVDFVLDAFKKYSAGGSAGGSAGGS [r10_470_TrMRF] | 0.392 ± 0.041
SAGMIATITITRPGTGSITLTVPVPVPSEEEARAYAEAVREALRAADPGPLEVSVEFERVPPVPPERLGSAG [r5_87_JUSTAS] | 1.6 ± 0.038
SAGGSAGGSAGKKKKKPKKKYVFIVIKINLSEEELKKLAEELGIDKVFKNENGYAVLVVKSAGGSAGGSAGG [r11_64_TrROS_Hall] | 2.19 ± 0.12
SAGGSAGGSPPNKEVYIRIKIEYDGPNGQPIMEFWIPADEITPSFIEELMNRGGIKVDIELIPSAGGSAGGS [r12_398_TrROS] | 2.66 ± 0.085

Assay: folding stability dG unfold (combined trypsin and chymotrypsin); higher = more stable
Outline: as §1

Sequence | folding stability dG unfold [kcal/mol]
SAGGSAGGSAGVVVKKPGTDVVYEITEEPGSYKVTITDPKTGTTKEFTVSPEVSIESLLLSAGGSAGGSAGG [r11_772_JUSTAS] | 1.15 ± 0.14
SAGGSAGGSGGFLVLEFEIEVDPEDPEKALAVVEALVESLGFEPVLIEVEEDENRVRVRVLLGSAGGSAGGS [r12_731_TrMRF] | 3.1 ± 0.13
SAMTITVTAPPGYTLNVTVTLAGGVPLTRTFSPSQSIDITIPEGTPFSLTVTTTAPGGEVATSTLTVPLSAG [r14_568_JUSTAS] | 3.19 ± 0.094
SAGGSAGGSAGNMWDQALRAAREAKDQGDEEVVIHFPPNMKNWVKEWAEDLGWPIKIQPTSAGGSAGGSAGG [r11_371_TrROS] | -0.0966 ± 0.19
SAGGSAGGSAKKITVEITIEVNGKKYKVKAEIELDEETKTLTIKVTFPDGTEFEFTFKLPEESAGGSAGGSA [r18_239_TrROS_Hall] | 5.76 ± 0.41
SAGGKTIVIELTPEEVEELLKKLLEELKKKAEENPDAKITIVITTPDGRTYTITIDLKTGKITIEELPSAGG [r13_216_TrROS_Hall] | 3.43 ± 0.1
SAGFGVYKHKYKYDNDDGNPKPKKPEEEPVEPAPPIEPLPIPIRLPDGQPFTFTILSISPKNNNISLNGSAG [r5_735_TrROS] | 0.452 ± 0.2
SAGFWIRIDPKNPRIYISGMPPGMIELIAENAGAPDVTPVKPGRPWWDARDNHPDPDAVIPIPPENMMSAGG [r19_270_TrROS] | 0.0233 ± 0.24
SAGGSMKIVKIEKIDLAKLKPGDIIEVKLENGEIYRIRIEKNEDGKYTVYIYNKNGELVEEFEFDVSAGGSA [r2_323_TrROS_Hall] | 3.84 ± 0.097
SAGGGVTITLKTADGKTLTLEIPGLTSVTVEPDKVTVEFEIPDYRITITFNPSTGTVEIKISHPDEPESAGG [r13_392_TrMRF] | 3.8 ± 0.2
SAGGDVTISIMIFVWPGWTEEQYKEMAKEVAKTIARQLAQKNPDLNENIDIEDIEVTIIPMEGDPDYFSAGG [r13_128_TrROS] | 1.68 ± 0.19
SAGGSAGGSAGGKKIRFYFPNGNPVELTEILDVDPEDKWARIDVEHNGKKHKHPMPADDLSAGGSAGGSAGG [r7_236_TrROS] | < -1
SAGGSAGGSAGGMYVAVVTRPDGSRLVVETEPGEEIELFTEDGRPLGITAVAPVDEEAFSAGGSAGGSAGGS [r10_422_TrMRF] | 0.227 ± 0.09
SPSADAKVRVEPLPGPGYLATLEDGSLVLVHPDGTVIEVTETKVRIRVFTPDKPLLELEIEIPPPAPDEPSA [r9_901_TrMRF] | 1.18 ± 0.16
SAGGPVVEKIRELLKELGYEVEVTDVKEDYVEIKVKLPDKEITLPDGSKIERLENGELRIWIPKEDLSAGGS [r8_297_TrROS_Hall] | 3.25 ± 0.083
SAGMLRVDIEIPPAFRKMLKNAPPGETVMFELPIKIKIEYYQPDGGKPEPKEHEQPFPVQFMVVLPPDGSAG [r5_946_TrROS] | 2.84 ± 0.2
SAGGMVTSTVSVDPSVPKTTTTETFSDGTRVVTTTTELPSGLTVTTTTVTVPPDGSTTATSTTTTIAPSAGG [r13_230_JUSTAS] | 1.27 ± 0.11
SAGGMTILFEADSLEEARQAVEDLLRDLGIPAIAERITVEERTFRLPAGPGTRRFVLVTIDLRLEPPSAGGS [r16_587_TrMRF] | 2.62 ± 0.034
GFEVTAEIEVYEDPESGAKVVKVTIPVKNGDPEVLEKAAKELAKKLFGPGAKFDPKIDPETGRVEVTGVLAS [r1_273_TrMRF] | 1.38 ± 0.13
SAKVSHLEFSLPNSVVTPEDLLAALEKLGFPPSKIKKMEIVKVKDNSYVVKIYLENEDGSDSIITLHLPSAG [r14_30_TrMRF] | 1.78 ± 0.11
SAGGSAGGSAGGSPKVYVELRFKLPNNLYVEIRYEIDPEKPGYVDWEVRLFDENGNPLGSAGGSAGGSAGGS [r4_297_TrMRF] | 4.56 ± 0.16
